# B1: human ICOS ectodomain (residues 21-138), untagged, disulfide-linked homodimer [human] / human ICOS-L ectodomain (residues 19-248), His-tagged, immobilised on Ni-NTA biosensors [human] (parent)
# chain 1: EINGSANYEMFIFHNGGVQILCKYPDIVQQFKMQLLKGGQILCDLTKTKGSGNTVSIKSLKFCHSQLSNNSVSFFLYNLDHSHANYYFCNLSIFDPPPFKVTLTGGYLHIYESQLCCQ
# chain 2: DTQEKEVRAMVGSDVELSCACPEGSRFDLNDVYVYWQTSESKTVVTYHIPQNSSLENVDSRYRNRALMSPAGMLRGDFSLRLFNVTPQDEQKFHCLVLSQSLGFQEVLSVEVTLHVAANFSVPVVSAPHSPSQDELTFTCTSINGYPRPNVYWINKTDNSLLDQALQNDTVFLNMRGLYDVVSVLRIARTPSVNIGCCIENVLLQQNLTVGSQTGNDIGERDKITENPVS
# Variants of: B1
# Test: BLI
# Settings: with human ICOS-L ectodomain (residues 19-248), parent: 9.8 nM, read off a plot
row,Kd [nM],Variant
1,2.7,chain 1 N90Q

# Same assay, conditions: with human ICOS-L ectodomain (residues 19-248), parent: 0.0033, read off a plot
row,koff [s⁻¹],Variant
1,0.0021,chain 1 N90Q

# Same assay, conditions: with human ICOS-L ectodomain (residues 19-248), parent: 3.3e+05, read off a plot
row,kon [M⁻¹ s⁻¹],Variant
1,730000,chain 1 N90Q

# Reference: article PMC7545189, “Structural characterization of the ICOS/ICOS-L immune complex reveals high molecular mimicry by therapeutic antibodies” (Nature Communications, 2020)
